# Reference: US6900033 (dated 2005)
# Positions of bridges follow the written chain, without caps; N, C: chain ends.
# Molecular target: ACE-2 (human)
# Experiment: other, ACE-2 enzyme inhibition
# Chain of ACE-2 (human) (Q9BYF1 1-740): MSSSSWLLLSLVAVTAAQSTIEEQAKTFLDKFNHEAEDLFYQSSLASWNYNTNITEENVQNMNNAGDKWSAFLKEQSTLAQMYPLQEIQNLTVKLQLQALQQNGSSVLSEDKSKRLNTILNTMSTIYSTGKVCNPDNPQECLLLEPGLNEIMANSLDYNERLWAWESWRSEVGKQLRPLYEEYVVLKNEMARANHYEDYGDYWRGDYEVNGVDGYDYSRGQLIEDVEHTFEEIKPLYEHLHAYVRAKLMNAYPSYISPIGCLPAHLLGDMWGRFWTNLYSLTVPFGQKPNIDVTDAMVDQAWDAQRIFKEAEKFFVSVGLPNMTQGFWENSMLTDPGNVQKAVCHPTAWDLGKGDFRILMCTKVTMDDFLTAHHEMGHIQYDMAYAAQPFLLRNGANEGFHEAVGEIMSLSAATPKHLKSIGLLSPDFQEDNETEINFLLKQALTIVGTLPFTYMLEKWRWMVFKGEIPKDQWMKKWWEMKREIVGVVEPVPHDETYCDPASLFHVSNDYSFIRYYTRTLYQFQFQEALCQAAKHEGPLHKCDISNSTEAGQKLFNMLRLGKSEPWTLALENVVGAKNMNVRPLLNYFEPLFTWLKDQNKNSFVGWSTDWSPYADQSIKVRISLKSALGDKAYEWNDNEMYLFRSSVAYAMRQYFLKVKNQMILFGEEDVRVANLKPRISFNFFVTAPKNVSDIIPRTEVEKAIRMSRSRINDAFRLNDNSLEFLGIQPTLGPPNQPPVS
row,Ki [nM],Binder
1,150,Ac-GDRLHCKPQRQSPWMKCQHLDPEGGG-NH2 (disulfide 6-17 (inferred)) [DX-512]
2,150,Ac-GDLHACRPVRGDPWWACTLGDPEGGG-NH2 (disulfide 6-17 (inferred)) [DX-513]
